Values quoted from earlier work as cited in US20250282866A1, “TREATMENT OF DISEASES RELATED TO ATP-BINDING CASSETTE TRANSPORTER 1 DYSFUNCTION USING TREM2 AGONISTS” (VIGIL NEUROSCIENCE, INC., priority 2020, published 2025).

T1: human TREM2 (Homo sapiens, UniProt Q9NZC2)
T1 sequence (Q9NZC2 19-230): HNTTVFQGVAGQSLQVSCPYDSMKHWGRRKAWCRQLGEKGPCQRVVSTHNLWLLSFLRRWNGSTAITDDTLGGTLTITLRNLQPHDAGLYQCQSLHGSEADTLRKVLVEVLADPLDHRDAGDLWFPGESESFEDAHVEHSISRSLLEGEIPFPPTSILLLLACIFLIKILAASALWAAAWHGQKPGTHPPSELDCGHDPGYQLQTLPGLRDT


Target: T1, human TREM2
Details: for Binding Signal (fold over 6E7 Parental antibody) 1st screen 110 nM or 10 nM: values printed without asterisk, concentration 110 nM or 10 nM (footnote a not given)

Binding Signal (fold over 6E7 Parental antibody) 1st screen 110 nM or 10 nM | Binding Signal (fold over 6E7 Parental antibody) 2nd screen 2 nM | Binding Signal (fold over 6E7 Parental antibody) 2nd screen 10 nM | Molecule
4.64 fold over 6E7 Parental antibod | 3.74 fold over 6E7 Parental antibod | 4.52 fold over 6E7 Parental antibod | V75: 6E7 variant: VH Q99G; VL N56A, F94Y (antibody, V domains shown) VH: EVQLVQSGAEVKKPGESLKISCKGSGYSFTSYWIAWVRQMPGKGLEWMGIIYPGDSDTRYSPSFQGQVTISADKSISTAYLQWSSLKASDTAMYFCARGRTFYYDSSDYFDYWGQGTLVTVSS VL: DIQMTQSPSSVSASVGDRVTITCRASQGISSWLAWYQQKPGKAPKLLIYAASSLQAGVPSRFSGSGSGTDFTLTISSLQPEDFATYFCQQADSYPRTFGQGTKLEIK
1.44 fold over 6E7 Parental antibod | 1.45 fold over 6E7 Parental antibod | 1.62 fold over 6E7 Parental antibod | V84: 6E7 variant: VH S28G, F110S; VL A50G (antibody, V domains shown) VH: EVQLVQSGAEVKKPGESLKISCKGSGYGFTSYWIAWVRQMPGKGLEWMGIIYPGDSDTRYSPSFQGQVTISADKSISTAYLQWSSLKASDTAMYFCARQRTFYYDSSDYSDYWGQGTLVTVSS VL: DIQMTQSPSSVSASVGDRVTITCRASQGISSWLAWYQQKPGKAPKLLIYGASSLQNGVPSRFSGSGSGTDFTLTISSLQPEDFATYFCQQADSFPRTFGQGTKLEIK
4.57 fold over 6E7 Parental antibod | 4.34 fold over 6E7 Parental antibod | 4.93 fold over 6E7 Parental antibod | V76: 6E7 variant: VH T30G, S63E, F110S; VL N56K (antibody, V domains shown) VH: EVQLVQSGAEVKKPGESLKISCKGSGYSFGSYWIAWVRQMPGKGLEWMGIIYPGDSDTRYSPEFQGQVTISADKSISTAYLQWSSLKASDTAMYFCARQRTFYYDSSDYSDYWGQGTLVTVSS VL: DIQMTQSPSSVSASVGDRVTITCRASQGISSWLAWYQQKPGKAPKLLIYAASSLQKGVPSRFSGSGSGRDFTLTISSLQPEDFATYFCQQADSFPRTFGQGTKLEIK
